The source of these data is patent publication US20120329717A1.

Experiment [1] concerns the target N-type VGCCs controlling excitatory synaptic transmission between primary afferents and dorsal horn (rat) (UniProt Q02294). The experiment can be described thus: cell-based or functional assay.
Experiment [2] has as its target N-type VGCCs in rat brain membranes (rat) (UniProt Q02294). The experiment can be described thus: displacement of 125I-GVIA from rat brain membranes. For orientation: In a radioligand displacement assay an active substance lowers the binding of a labelled ligand.
Experiment [3] concerns the target N-type VGCCs controlling excitatory synaptic transmission between primary afferents and dorsal horn (rat), Q02294. The experiment can be described thus: cell-based or functional assay.
For experiment [4], the target named is N-type VGCCs in rat brain membranes (rat), Q02294. The experiment can be described thus: displacement of 125I-GVIA from rat brain membranes.
N-type VGCCs in rat brain membranes (rat), Q02294, sequence (Q02294 whole entry): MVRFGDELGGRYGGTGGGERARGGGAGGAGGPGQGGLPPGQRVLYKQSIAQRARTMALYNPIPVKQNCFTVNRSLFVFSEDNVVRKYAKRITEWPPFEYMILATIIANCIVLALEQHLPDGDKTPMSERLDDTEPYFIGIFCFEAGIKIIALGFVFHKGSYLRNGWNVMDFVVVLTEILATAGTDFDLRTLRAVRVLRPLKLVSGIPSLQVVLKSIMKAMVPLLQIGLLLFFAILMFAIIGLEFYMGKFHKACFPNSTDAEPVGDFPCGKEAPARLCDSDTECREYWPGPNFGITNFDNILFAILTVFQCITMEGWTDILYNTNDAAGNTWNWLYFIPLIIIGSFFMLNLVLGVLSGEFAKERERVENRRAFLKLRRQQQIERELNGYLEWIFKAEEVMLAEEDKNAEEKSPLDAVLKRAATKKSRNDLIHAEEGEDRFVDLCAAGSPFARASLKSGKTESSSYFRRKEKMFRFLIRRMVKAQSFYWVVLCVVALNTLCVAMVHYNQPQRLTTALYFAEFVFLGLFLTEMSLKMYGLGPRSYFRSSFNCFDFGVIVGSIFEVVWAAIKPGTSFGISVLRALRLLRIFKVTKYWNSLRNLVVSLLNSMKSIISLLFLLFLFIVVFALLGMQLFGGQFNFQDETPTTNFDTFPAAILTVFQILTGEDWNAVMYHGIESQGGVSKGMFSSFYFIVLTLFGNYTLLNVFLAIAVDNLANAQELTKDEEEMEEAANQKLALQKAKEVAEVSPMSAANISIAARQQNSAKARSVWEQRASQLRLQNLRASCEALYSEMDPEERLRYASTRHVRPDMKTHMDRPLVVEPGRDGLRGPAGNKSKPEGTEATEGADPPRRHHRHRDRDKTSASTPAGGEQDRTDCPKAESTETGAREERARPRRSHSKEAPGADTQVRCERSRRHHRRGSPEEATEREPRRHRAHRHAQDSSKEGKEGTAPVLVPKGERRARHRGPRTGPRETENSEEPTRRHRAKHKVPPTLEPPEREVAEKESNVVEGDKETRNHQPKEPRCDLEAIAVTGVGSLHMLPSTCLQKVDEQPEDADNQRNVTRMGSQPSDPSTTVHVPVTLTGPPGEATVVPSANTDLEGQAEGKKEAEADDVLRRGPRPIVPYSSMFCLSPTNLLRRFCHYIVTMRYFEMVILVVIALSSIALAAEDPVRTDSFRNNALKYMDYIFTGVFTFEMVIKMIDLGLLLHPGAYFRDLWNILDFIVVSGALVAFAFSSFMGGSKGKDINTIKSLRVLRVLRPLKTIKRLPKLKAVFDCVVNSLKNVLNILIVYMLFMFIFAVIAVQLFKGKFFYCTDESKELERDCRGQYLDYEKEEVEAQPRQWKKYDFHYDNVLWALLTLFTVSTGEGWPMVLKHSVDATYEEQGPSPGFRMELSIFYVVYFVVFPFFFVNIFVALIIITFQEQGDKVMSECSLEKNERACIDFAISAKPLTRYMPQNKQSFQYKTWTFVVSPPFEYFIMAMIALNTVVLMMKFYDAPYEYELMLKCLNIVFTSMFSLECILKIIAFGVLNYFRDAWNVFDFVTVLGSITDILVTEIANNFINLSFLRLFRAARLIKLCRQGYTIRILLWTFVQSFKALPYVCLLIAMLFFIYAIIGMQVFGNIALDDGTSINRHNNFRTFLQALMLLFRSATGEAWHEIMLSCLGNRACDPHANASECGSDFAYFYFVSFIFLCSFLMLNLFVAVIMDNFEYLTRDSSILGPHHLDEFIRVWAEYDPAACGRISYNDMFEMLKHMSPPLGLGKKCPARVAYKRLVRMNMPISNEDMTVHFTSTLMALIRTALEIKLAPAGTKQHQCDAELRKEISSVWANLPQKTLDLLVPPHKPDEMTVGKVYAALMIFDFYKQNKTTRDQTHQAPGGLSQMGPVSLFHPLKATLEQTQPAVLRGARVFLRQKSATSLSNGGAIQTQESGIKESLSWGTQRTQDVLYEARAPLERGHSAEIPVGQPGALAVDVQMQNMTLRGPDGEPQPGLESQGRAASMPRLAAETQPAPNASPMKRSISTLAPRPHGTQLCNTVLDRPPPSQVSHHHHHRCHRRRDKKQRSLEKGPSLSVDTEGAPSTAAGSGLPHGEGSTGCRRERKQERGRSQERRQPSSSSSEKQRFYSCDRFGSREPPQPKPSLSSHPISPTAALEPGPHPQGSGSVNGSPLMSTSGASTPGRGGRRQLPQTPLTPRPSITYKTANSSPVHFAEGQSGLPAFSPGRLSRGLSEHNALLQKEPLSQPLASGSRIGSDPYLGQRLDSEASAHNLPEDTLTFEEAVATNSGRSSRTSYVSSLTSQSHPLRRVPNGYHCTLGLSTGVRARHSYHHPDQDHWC

N-type VGCCs in rat brain membranes (rat), sequence (Q02294 whole entry): as above
N-type VGCCs controlling excitatory synaptic transmission between primary afferents and dorsal horn (rat), sequence (Q02294 whole entry): as above
N-type VGCCs controlling excitatory synaptic transmission between primary afferents and dorsal horn (rat), Q02294, sequence (Q02294 whole entry): as above

Take ω-conotoxin CVIE (peptide): the EPSC amplitude recovered 10-15 min after washout, percent of control in experiment [1] is 78%. In experiment [2], this molecule yielded an affinity of 37 µM and a pIC50 of 10.7 M.

Consider CKGKGASCRRTSYDCCTGSCRSGRC (modifications not checked) [ω-conotoxin CVIF], for which, in experiment [3], the EPSC amplitude recovered 10-15 min after washout, percent of control is 73%. Also, in experiment [4], the affinity was 98 µM and the pIC50 is 10.6 M.

In experiment [4], CKSPGSSCSPTSYNCCRSCNPYTKRCY (modifications not checked) [ω-conotoxin GVIA, P01522 46-72] had an affinity of 24 µM and a pIC50 of 10.6 M.

For CKSKGAKCSKLMYDCCSGSCSGTVGRC (modifications not checked) [ω-conotoxin CVID, P58920 46-72], in experiment [4], the affinity was 12 µM and the pIC50 was 11 M.
